In PMC8573169, “Structural basis for the inhibition of the Bacillus subtilis c-di-AMP cyclase CdaA by the phosphoglucomutase GlmM” (The Journal of Biological Chemistry, 2021):
Blank lines part the entries; values can stand above or below the binder they belong to.

B1: full-length B. subtilis GlmM (phosphoglucosamine mutase), His-tagged (enzyme, UniProt O34824 1-448, looked up)
chain: MGKYFGTDGVRGVANSELTPELAFKVGRFGGYVLTKDKQRPKVLIGRDTRISGHMLEGALVAGLLSIGAEVMRLGVISTPGVSYLTKAMDAEAGVMISASHNPVQDNGIKFFGGDGFKLSDEQEAEIERLMDEPEDKLPRPVGADLGLVNDYFEGGQKYLQFLKQTADEDFTGIHVALDCANGATSSLATHLFADLDADVSTMGTSPNGLNINDGVGSTHPEALSAFVKEKNADLGLAFDGDGDRLIAVDEKGNIVDGDQIMYICSKHLKSEGRLKDDTVVSTVMSNLGFYKALEKEGIKSVQTAVGDRYVVEAMKKDGYNVGGEQSGHLIFLDYNTTGDGLLSAIMLMNTLKATGKPLSELAAEMQKFPQLLVNVRVTDKYKVEENEKVKAVISEVEKEMNGDGRILVRPSGTEPLVRVMAEAKTKELCDEYVNRIVEVVRSEMGLE
notes: GlmM of B. subtilis strain 168, full-length protein; also called glmM-his; phosphoglucomutase GlmM; source: E. coli BL21(DE3), purified (Ni-NTA, SEC); also in lysate, mixed with the partner's lysate before Ni-NTA and SEC; not shown: His6, C-terminal, kept

Assays:
[1] = biological target: the molecule itself; test: SEC-SAXS; purified proteins or purified complexes (CdaACD 5 mg/ml, GlmM 24 mg/ml, CdaACD:GlmM 24 mg/ml, CdaACD:GlmM_(F369) 10 mg/ml) on a Shodex KW403 column in 30 mM Tris pH 7.5, 150 mM NaCl, with continuous SAXS data collection; envelopes fitted with the crystal structures
[2] = biological target: the molecule itself; test: crystal structure; purified CdaACD:GlmM_(F369) complex at 10 mg/ml, two conditions (complex 1, 3.6 A; complex 2, 4.2 A); three complexes in the asymmetric unit
[3] = biological target: B1; test: MST; fluorescently labelled (RED-NHS) CdaACD at 25 nM final, unlabelled GlmM 0.78 uM to 800 uM final; 10 mM HEPES pH 7.5, 150 mM NaCl, 0.05% Tween-20; Monolith NT.115, LED power 95%, MST power 80%; five runs; details: both partners purified
[4] = biological target: the molecule itself; test: crystal structure; tag-less CdaACD at 4 mg/ml; 0.1 M sodium cacodylate pH 6.5, 0.1 M ammonium sulfate, 0.3 M sodium formate, 6% PEG 8000, 3% gamma-PGA; dimer in the asymmetric unit; 2.8 A

Binder: B1
- stoichiometry N [1]: 2

B2: B. subtilis GlmM_(F369) variant lacking the C-terminal domain 4, His-tagged (domain or fragment, UniProt O34824 1-369, looked up)
chain: MGKYFGTDGVRGVANSELTPELAFKVGRFGGYVLTKDKQRPKVLIGRDTRISGHMLEGALVAGLLSIGAEVMRLGVISTPGVSYLTKAMDAEAGVMISASHNPVQDNGIKFFGGDGFKLSDEQEAEIERLMDEPEDKLPRPVGADLGLVNDYFEGGQKYLQFLKQTADEDFTGIHVALDCANGATSSLATHLFADLDADVSTMGTSPNGLNINDGVGSTHPEALSAFVKEKNADLGLAFDGDGDRLIAVDEKGNIVDGDQIMYICSKHLKSEGRLKDDTVVSTVMSNLGFYKALEKEGIKSVQTAVGDRYVVEAMKKDGYNVGGEQSGHLIFLDYNTTGDGLLSAIMLMNTLKATGKPLSELAAEMQKF
notes: GlmM of B. subtilis strain 168, residues Met1 to Phe369 (domains 1 to 3, lacking the flexible C-terminal domain 4); also called truncated GlmM; glmM_(F369)-his; source: E. coli BL21(DE3), purified (Ni-NTA, SEC); also in lysate, mixed with the partner's lysate before Ni-NTA and SEC; not shown: His6, C-terminal, kept
- stoichiometry N [2]: 2

- Kd [3]: 14.4 ± 0.962 µM
B3: B. subtilis CdaA catalytic domain (CdaACD), His-tagged (domain or fragment, UniProt Q45589 97-273, looked up)
chain: FFSRSGTPVEEAQQKTIEAITKAINYMAKRRIGALLTIERDTGMGDYIETGIPLNAKVSSELLINIFIPNTPLHDGAVIMKNNEIAAAACYLPLSESPFISKELGTRHRAAVGISEVTDSLTIIVSEETGGVSVAKNGDLHRELTEEALKEMLEAEFKKNTRDTSSNRWYWRGKKNG
notes: C-terminal catalytic (DAC) domain of the c-di-AMP cyclase CdaA of B. subtilis strain 168, starting from amino acid Phe97; The His tag is thrombin cleavable; For MST the protein was labelled with an amine-reactive dye (Monolith Protein Labeling RED-NHS 2nd Generation kit); also called soluble catalytic domain of the c-di-AMP cyclase CdaA; his-cdaACD; source: E. coli BL21(DE3), purified (Ni-NTA, …)
- stoichiometry N [2]: 2

B4: tag-less B. subtilis CdaACD (domain or fragment, UniProt Q45589 97-273, looked up)
chain: FFSRSGTPVEEAQQKTIEAITKAINYMAKRRIGALLTIERDTGMGDYIETGIPLNAKVSSELLINIFIPNTPLHDGAVIMKNNEIAAAACYLPLSESPFISKELGTRHRAAVGISEVTDSLTIIVSEETGGVSVAKNGDLHRELTEEALKEMLEAEFKKNTRDTSSNRWYWRGKKNG
notes: C-terminal catalytic (DAC) domain of the c-di-AMP cyclase CdaA of B. subtilis strain 168, starting from amino acid Phe97; also called tag less CdaACD; source: E. coli BL21(DE3), purified (Ni-NTA, SEC), His tag removed with thrombin, SEC; not shown: His6, N-terminal, cleaved
- stoichiometry N [4]: 2
